This is an account of results in the supplement of paper PMC9170038.

For the data set, the system named is MS2 coat protein. Nature of the data set: apparent KD of MS2 coat protein; designed switch direction (-1 OFF switch, 1 ON switch): -1; higher = weaker reporter binding. Summed up:
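On Illumina chips, designed RNA switches with common flanks were made by stalled E. coli RNA polymerase. Titrations with SNAP-549-labelled MS2 coat protein, doubling from 0.7 or 1.5 nM to 3 µM, were done with no input, with 200 uM small-molecule ligand, or with an oligonucleotide input. Apparent KD is the median per design over clusters, from curve fits of normalised cluster fluorescence.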

The mark [1] stands for this setting: input ligand: microRNA oligo, concentration not stated.
[2] abbreviates: Eterna round: R95, input ligand: microRNA oligo, concentration not stated.

With “CGCUGGACAGGAUAUGUUCUUGGGCACUUGAGGAUCACCCAAGUCAUCAAGACAACAGGCACAGAAGGGUUUAUGG [salish99_ex5_r4_023] (Eterna round: R97, puzzle: Exclusion 5)”, the “apparent KD of MS2 coat protein” value was 20.6 nM (input ligand: FMN 200 uM) and 18.4 nM (input ligand: none).

Consider “UGAGUGCGUGUUAGGAUAUGGUUUGGUAUUUCGGGCUAGAAGGGACAUGAGGAUCACCCAUGUAAUUGGCGGGU [-17.2, -16.9 kcal, 22% A] (Eterna round: R97, puzzle: Brourd's mod of Exclusion 4)”, for which the “apparent KD of MS2 coat protein” value runs as follows: (input ligand: FMN 200 uM) 259 nM; (input ligand: none) 227 nM.

For the sequence “UGAGCUUCAGGAUAUACGUGACGUCCGUGAGGACGAAGGUUACAUGAGGAUCACCCAUGUAGAAGGGAAGUUCU [Mat - Exclusion 2 - JL Mod - D31] (Eterna round: R97, puzzle: Exclusion 2)”, the “apparent KD of MS2 coat protein” value (input ligand: FMN 200 uM) was 60.8 nM and the “apparent KD of MS2 coat protein” value (input ligand: none) worked out at 31.6 nM.

As to “ACAAGCUUAAAGGUGAAUAACAUGAGGAUCACCCAUGUUCGUCUUAUAAAAAUAAAAAUAAAAAAUAAAAAAUAAAA [Sensor V2: 62] (Eterna round: R96, puzzle: Sensor v2, turn-off variant)”, the “apparent KD of MS2 coat protein” value was determined as 25.6 nM (input ligand: FMN 200 uM), 87.2 nM under setting [1] and 27.9 nM (input ligand: none).

Regarding “AACUCACGUUCAGGAUAUCGCGUUCCAAAGACAUGAGAAGGGAACAUGAGGAUCACCCAUGUGCCCGGUCUCAGACCGGGCUUC [Cetein] (Eterna round: R96, puzzle: Exclusion NG 1)”, the “apparent KD of MS2 coat protein” value (input ligand: FMN 200 uM) amounted to 328 nM, the “apparent KD of MS2 coat protein” value under setting [1] was determined as 76 nM and the “apparent KD of MS2 coat protein” value (input ligand: none) is 88.8 nM.

Consider “UCGCUCCGUGUAGGAUAUCGCCGUACUAUUCGGCGAGAAGGACAUGAGGAUCACCCAUGUAUGUUAUUAUCACGCGUGGCGCAA [Design 59] (Eterna round: R96, puzzle: Exclusion NG 1)”, for which the “apparent KD of MS2 coat protein” value reads like this: (input ligand: FMN 200 uM) 20.3 nM; under setting [1], 15.2 nM; (input ligand: none) 16.9 nM.

“UUUUUCUCAGGAUAUACAUGAGGAUCACCCAUGUAUAUUGAUGAUAAUACAUGGGAAUGUAGAAGGGAGCUCAU [Omei Ex3 Pseudoloop 16] (Eterna round: R97, puzzle: Exclusion 3)”: the “apparent KD of MS2 coat protein” value is, setting by setting: (input ligand: FMN 200 uM) 87.9 nM; (input ligand: none) 95.7 nM.

For the sequence “AAGAAGAGGUGAGGAUAUCGAAGUACAGGCUGGGACUCGGACUACAUGAGGAUCACCCAUGUAUACGAGAAGGCACUUCGAUAA [Quusatrare] (Eterna round: R96, puzzle: Exclusion NG 2)”, the “apparent KD of MS2 coat protein” value (input ligand: FMN 200 uM) amounted to 12.6 nM, the “apparent KD of MS2 coat protein” value under setting [1] worked out at 12 nM and the “apparent KD of MS2 coat protein” value (input ligand: none) turned out to be 14.7 nM.

Turning to “GAGGAACAUGAGGAUCACCCAUGUGAGGAUAUGCAUAGUGAGCUAGUAGACGUUUAUUGCAGAAGGUACACUGA [JR_Exclu1_Sub080] (puzzle: Exclusion 1)”, under setting [2], the “apparent KD of MS2 coat protein” value was 25.3 nM.

Regarding “UAUUCACAUGAGGAUCACCCAUGUCAGGAUAUAUUCGAUAUAUGGAAACAUAUAUCGAAUAGAAGGGACUAGCG [Jieuxxlusion 10 - Jieux - Exclusion 1] (Eterna round: R97, puzzle: Exclusion 1)”, where the note is “input ligand: FMN 200 uM”, the “apparent KD of MS2 coat protein” value is 54.6 nM.

Turning to “AUGGACGCAGGAUAUACAUGAGGAUCACCCAUGUGAGGUUGGUAAGUAGGAAGUGAAGGUAGAAGGGCGAGAGA [JR_Exclu3_Sub097] (puzzle: Exclusion 3)”, the “apparent KD of MS2 coat protein” value is, setting by setting: (Eterna round: R95, input ligand: FMN 200 uM) 107 nM; under setting [2], 74.8 nM; (Eterna round: R95, input ligand: none) 84.3 nM.

Turning to “UUAAUUAAUUUAAUAUAAGAUCACAUGAGGAUCACCCAUGUAUAGGAUAUCAGCUCGUUUAGAGCUGAGAAGGAUACAUAAUAU [ExNG3/2-B2] (Eterna round: R96, puzzle: Exclusion NG 3)”, the “apparent KD of MS2 coat protein” value (input ligand: FMN 200 uM) is 292 nM, the “apparent KD of MS2 coat protein” value under setting [1] amounted to 328 nM and the “apparent KD of MS2 coat protein” value (input ligand: none) was found to be 230 nM.
